Earlier results as cited in patent publication US20180296542A1, “IMINOSUGARS FOR IMPROVING BONE MINERAL DENSITY IN BONE DISEASE” (Saint Louis University, priority 2015, published 2018).

Tested on: Akp2^−/− mice
Details: cited from earlier work

B1: untagged, native human TNSALP: untagged, native human tissue nonspecific alkaline phosphatase used for ERT in Akp2−/− mice (protein, UniProt P05186 18-501, looked up)
Alkaline phosphatase, …: LVPEKEKDPKYWRDQAQETLKYALELQKLNTNVAKNVIMFLGDGMGVSTVTAARILKGQLHHNPGEETRLEMDKFPFVALSKTYNTNAQVPDSAGTATAYLCGVKANEGTVGVSAATERSRCNTTQGNEVTSILRWAKDAGKSVGIVTTTRVNHATPSAAYAHSADRDWYSDNEMPPEALSQGCKDIAYQLMHNIRDIDVIMGGGRKYMYPKNKTDVEYESDEKARGTRLDGLDLVDTWKSFKPRYKHSHFIWNRTELLTLDPHNVDYLLGLFEPGDMQYELNRNNVTDPSLSEMVVVAIQILRKNPKGFFLLVEGGRIDHGHHEGKAKQALHEAVEMDRAIGQAGSLTSSEDTLTVVTADHSHVFTFGGYTPRGNSIFGLAPMLSDTDKKPFTAILYGNGPGYKVVGGERENVSMVDYAHNNYQAQSAVPLRHETHGGEDVAVFSKGPMAHLLHGVHEQNYVPHVMAYAACIGANLGHCAPAS
- Bone findings after 6 months (after 6 months): hypomineralization and abnormal proliferative chondrocytes presented
- Growth and fertility compared to untreated knock-out animals: better growth and normal fertility
- Length of life compared to untreated knock-out animals: longer lives
